Results reported in US20260218147, “CAS ENDONUCLEASE AND GUIDE RNA VARIANTS WITH IMPROVED EFFICIENCY” (PIONEER HI-BRED INTERNATIONAL, INC., published 2026).
Substitutions are numbered along the chain they refer to.

T1: Cas-alpha 10 wild type (Cas12f) (Syntrophomonas palmitatica, UniProt P0DW62 SEQ:1-497)
T1 sequence: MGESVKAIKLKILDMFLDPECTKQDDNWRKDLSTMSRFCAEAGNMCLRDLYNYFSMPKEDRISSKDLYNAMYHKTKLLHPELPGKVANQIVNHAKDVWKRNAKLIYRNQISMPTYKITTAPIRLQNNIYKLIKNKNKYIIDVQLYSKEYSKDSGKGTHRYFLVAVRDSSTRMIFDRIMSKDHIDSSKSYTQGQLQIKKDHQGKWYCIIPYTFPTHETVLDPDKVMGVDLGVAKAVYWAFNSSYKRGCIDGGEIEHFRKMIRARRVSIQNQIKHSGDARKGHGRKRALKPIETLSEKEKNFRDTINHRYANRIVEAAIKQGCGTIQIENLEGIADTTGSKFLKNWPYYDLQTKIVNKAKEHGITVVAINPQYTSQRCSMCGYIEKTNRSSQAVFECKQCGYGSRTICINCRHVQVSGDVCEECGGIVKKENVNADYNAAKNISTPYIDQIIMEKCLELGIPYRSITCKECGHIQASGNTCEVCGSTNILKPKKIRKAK

T2: Cas-alpha 10 base variant (synthetic construct, UniProt P0DW62 SEQ:1-497)
T2 chain: T1 sequence with A40G, E81G, A87K, T190K, T217H, K298S, H306F, T335R, I405N

T3: Cas-alpha 10 variant T34E+M45S+G81E+G470D (SEQ ID NO:362) (synthetic construct, UniProt P0DW62 SEQ:1-497, D54F)
T3 sequence: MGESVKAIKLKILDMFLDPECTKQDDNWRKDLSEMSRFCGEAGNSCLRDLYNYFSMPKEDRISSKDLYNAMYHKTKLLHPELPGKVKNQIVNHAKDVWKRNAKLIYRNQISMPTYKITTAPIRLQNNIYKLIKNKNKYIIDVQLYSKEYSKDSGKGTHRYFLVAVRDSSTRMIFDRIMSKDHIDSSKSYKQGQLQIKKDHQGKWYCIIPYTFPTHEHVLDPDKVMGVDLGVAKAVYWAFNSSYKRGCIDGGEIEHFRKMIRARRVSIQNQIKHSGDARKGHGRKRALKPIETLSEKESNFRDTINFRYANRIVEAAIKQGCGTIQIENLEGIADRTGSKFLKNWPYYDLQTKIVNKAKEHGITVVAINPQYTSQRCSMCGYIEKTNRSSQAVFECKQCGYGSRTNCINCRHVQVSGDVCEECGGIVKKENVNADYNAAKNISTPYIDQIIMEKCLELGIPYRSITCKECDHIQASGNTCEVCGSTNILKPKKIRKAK

T4: Cas-alpha 10 variant G81E (synthetic construct, UniProt P0DW62 SEQ:1-497)
T4 chain: T1 sequence

B1: sgRNA RUNX (original) ; RUNX target (ssRNA ; dsDNA)
RNA: AUUUACUCUGUUUCGCGCGCCAGGGCAGUUAGGUGCCCUAAAAGAGCGAAGUGGCCGAAAGGAAAGGCUAACGCUUCUCUAACGCUACGGCGACCUUGGCGAAAUGCCAUCAAUACCACGCGGCCCGAAAGGGUUCGCGCGAAACUGAGUAAUGAAAGUCGCAUCUUGCGUAAGCGCGUGGAUUGAAACCCUGUCUUGUUUGUGAGAGG
DNA 1: GTTCCCTGTCTTGTTTGTGAGAGG
DNA 2: CCTCTCACAAACAAGACAGGGAAC
B2: sgRNA RUNX Design 5_157-159 ; RUNX target (ssRNA ; dsDNA)
RNA: GUUUCGCGCGCCAGGGCAGUUAGGUGCCCUAAAAGAGCGAAGUGGCCGAAAGGAAAGGCUAACGCUUCUCUAACGCUACGGCGACCUUGGCGAAAUGCCAUCAAUACCACGCGGCCCGAAAGGGUUCGCGCGAAACGAACGCAUCUUGCGUAAGCGCGUGGAUUGAAACCCUGUCUUGUUUGUGAGAGG
DNA 1: GTTCCCTGTCTTGTTTGTGAGAGG
DNA 2: CCTCTCACAAACAAGACAGGGAAC
B3: sgRNA MS26 (original) ; MS26 target (ssRNA ; dsDNA)
RNA: AUUUACUCUGUUUCGCGCGCCAGGGCAGUUAGGUGCCCUAAAAGAGCGAAGUGGCCGAAAGGAAAGGCUAACGCUUCUCUAACGCUACGGCGACCUUGGCGAAAUGCCAUCAAUACCACGCGGCCCGAAAGGGUUCGCGCGAAACUGAGUAAUGAAAGUCGCAUCUUGCGUAAGCGCGUGGAUUGAAACAAGUUCACGGCGUUCCAGGC
DNA 1: GTTCAAGTTCACGGCGTTCCAGGC
DNA 2: GCCTGGAACGCCGTGAACTTGAAC

Assays:
[1] = target: T1, Cas-alpha 10 wild type (Cas12f); assay: cell_activity; PAM GTTC; HEK293T 37 C; conditions: tags: SV40 NLS; chain copies: 2
Protocol: (§1) Human cell transformation was carried-out by culturing HEK293T cells (ATCC catalog umber CRL-3216) in Dulbecco's Modified Eagle Medium (DMEM) supplemented with 10% fetal bovine serum (FBS) and penicillin (100 U/ml)/streptomycin (100 μg/ml) at 37° C. in 5% CO₂. Cells were then seeded in 96-well plates at a 1.8×10^4 cells/well density. After approximately one day growth, cells were transfected with plasmids encoding nuclease and U6-guide RNA expression cassettes using FuGENE HD (Promega) per manufacturer's instruction. Briefly, on the day of transfection, 0.450 μg of plasmid DNA ([…] of Cas-alpha nuclease and 0.099 μg of sgRNA expression cassettes) was diluted in a final volume of 20 μl of room temperature Opti-MEM (Gibco), mixed, and 1.35 μl of FuGENE HD was added directly to the solution (not allowing undiluted transfection reagent to contact the sides or bottom of the tube or plate) to achieve a 3:1 ratio of transfection reagent to plasmid DNA. The resulting mixture was then incubated for 10 mins at room temperature, 20 μl added to each HEK293T seeded well, and mixed gently by pipetting or by using a shaker. Transfected cells were then grown at 37° C. with 5% CO₂ for 4 days and GFP expression monitored by fluorescence microscope. Experiments were performed with three to twelve independent replicates and transfections where Cas-alpha 10 endonuclease and/or sgRNA plasmid DNA expression cassettes were omitted served as negative controls.
(§2) For human cells, cells were washed twice with PBS two to four days after transfection and lysed using lysis buffer (50 mM Tris, 150 mM NaCl, 0.2% Tween 20, 0.2 mg/ml Proteinase K). Next, RUNX and WTAP targets were evaluated for the presence of targeted mutations using T7 endonuclease I (Guschin, D. Y. et al. (2010) In: Mackay J., Segal D. (eds) Engineered Zinc Finger Proteins. Methods in Molecular Biology (Methods and Protocols), vol 649. Humana Press, Totowa, NJ) and Illumina deep sequencing as described above.

[2] = target: T2, Cas-alpha 10 base variant; assay: cell_activity; PAM GTTC; HEK293T 37 C; conditions: tags: SV40 NLS; chain copies: 2
Protocol: as §1, §2

[3] = target: T3, Cas-alpha 10 variant …; assay: cell_activity; PAM GTTC; HEK293T 37 C; conditions: tags: SV40 NLS, T2A-GFP; chain copies: 2
Protocol: as §1, §2

[4] = target: T4, Cas-alpha 10 variant G81E; assay: cell_activity; PAM GTTC; maize, 3x4 hr 45 C; conditions: tags: SV40 NLS; chain copies: 2
Protocol: The resulting T-DNA was then placed into LBA4404, a thymine auxotrophic strain of Agrobacterium tumefaciens, containing Vir9, a separate plasmid encoding the Bo542 virulence genes (US20170121722A1 and WO 2017/078836). The resulting Agrobacterium strain was then used to transform nine-to-ten-day old immature maize embryos (approximately 2 mm in size) by submersion in 700A liquid media containing the strain at an optical density (OD) of 0.4 to 2.0 at 550 nm for 5 min. and then removed from the media and placed on solid co-cultivation medium overnight at 21° C. in the dark. Following T-DNA delivery, embryos are transferred to resting media, 13266R, and grown in the dark at 28° C. for 5-7 days. Next, coleoptiles were removed, and embryos transferred to selection media for 11-16 days and kept in the dark at 28° C. They were then moved to maturation media and incubated for 14-25 days in the dark at 28° C. and then subject to light for 2-5 days. Next, they were moved to rooting media and incubated at 26-28° C. under light for 14-28 days refreshing media as needed. To examine Cas-alpha nuclease-guide RNA activity, transformed tissue was incubated at 28° C., standard for Agrobacterium transformation, or at a range of temperatures lower or higher than 28° C.
In a third study, the efficiency of targeted mutagenesis of Cas-alpha 10 endonuclease variants, SEQ ID NOs:14, 48, 60, and 157, were compared when tested with two sgRNA recognition domains, SEQ ID NOs:61 and 327, at two target sites, MS26 and D8. Experiments were carried-out in Zea mays using Agrobacterium (Agro) transformation as described in Example 2. Two temperature regimens were performed. The first subjected Agro transformed embryos (once per day) to 45° C. for 4 hrs on days 3, 4, and 5 (3×4 hr 45° C.) after infection and the second to a continuous incubation at 37° C. on days 1-3 (1-3d 37° C.) following infection. For both regimens, embryos were placed at 28° C. before and after temperature treatment. […]

Binder	activity [1]	activity [2]	activity [3]	activity [4]
B1	5.68 % targeted mutagenesis	8.77 % targeted mutagenesis	–	–
B2	–	19.6 % targeted mutagenesis	24.2 % targeted mutagenesis	–
B3	–	–	–	6.62 % targeted mutagenesis
